PMC12006399, “RNase1-driven ALK-activation is an oncogenic driver and therapeutic target in non-small cell lung cancer” (Signal Transduction and Targeted Therapy, 2025)
Values belong to the molecule of their own block, whether it stands above or below them.

Assays:
ALK (Homo sapiens) = ALK (Homo sapiens) (UniProt Q9UM73); settings: cited from earlier work
EphA4 (Homo sapiens) = EphA4 (Homo sapiens) (UniProt P54764); settings: cited from earlier work
[1] = biological target: T1, endogenous wild-type ALK in H1299 human lung cancer cells (human (endogenous in H1299), UniProt Q9UM73 19-1620); test: ELISA; ALK captured from H1299 lysate on plate-bound ALK antibody (3 µg/ml); recombinant RNase1 at different concentrations in lysis buffer, overnight at 4 °C; streptavidin-HRP, TMB, OD 450 nm; Kd by GraphPad Prism; settings: one partner purified
T1 construct: ALK receptor tyrosine kinase, wild type, endogenous in H1299 human lung cancer cells; also called WT ALK; source: endogenous, H1299 lysate; endogenous, in H1299 cells
T1 sequence (Q9UM73 19-1620): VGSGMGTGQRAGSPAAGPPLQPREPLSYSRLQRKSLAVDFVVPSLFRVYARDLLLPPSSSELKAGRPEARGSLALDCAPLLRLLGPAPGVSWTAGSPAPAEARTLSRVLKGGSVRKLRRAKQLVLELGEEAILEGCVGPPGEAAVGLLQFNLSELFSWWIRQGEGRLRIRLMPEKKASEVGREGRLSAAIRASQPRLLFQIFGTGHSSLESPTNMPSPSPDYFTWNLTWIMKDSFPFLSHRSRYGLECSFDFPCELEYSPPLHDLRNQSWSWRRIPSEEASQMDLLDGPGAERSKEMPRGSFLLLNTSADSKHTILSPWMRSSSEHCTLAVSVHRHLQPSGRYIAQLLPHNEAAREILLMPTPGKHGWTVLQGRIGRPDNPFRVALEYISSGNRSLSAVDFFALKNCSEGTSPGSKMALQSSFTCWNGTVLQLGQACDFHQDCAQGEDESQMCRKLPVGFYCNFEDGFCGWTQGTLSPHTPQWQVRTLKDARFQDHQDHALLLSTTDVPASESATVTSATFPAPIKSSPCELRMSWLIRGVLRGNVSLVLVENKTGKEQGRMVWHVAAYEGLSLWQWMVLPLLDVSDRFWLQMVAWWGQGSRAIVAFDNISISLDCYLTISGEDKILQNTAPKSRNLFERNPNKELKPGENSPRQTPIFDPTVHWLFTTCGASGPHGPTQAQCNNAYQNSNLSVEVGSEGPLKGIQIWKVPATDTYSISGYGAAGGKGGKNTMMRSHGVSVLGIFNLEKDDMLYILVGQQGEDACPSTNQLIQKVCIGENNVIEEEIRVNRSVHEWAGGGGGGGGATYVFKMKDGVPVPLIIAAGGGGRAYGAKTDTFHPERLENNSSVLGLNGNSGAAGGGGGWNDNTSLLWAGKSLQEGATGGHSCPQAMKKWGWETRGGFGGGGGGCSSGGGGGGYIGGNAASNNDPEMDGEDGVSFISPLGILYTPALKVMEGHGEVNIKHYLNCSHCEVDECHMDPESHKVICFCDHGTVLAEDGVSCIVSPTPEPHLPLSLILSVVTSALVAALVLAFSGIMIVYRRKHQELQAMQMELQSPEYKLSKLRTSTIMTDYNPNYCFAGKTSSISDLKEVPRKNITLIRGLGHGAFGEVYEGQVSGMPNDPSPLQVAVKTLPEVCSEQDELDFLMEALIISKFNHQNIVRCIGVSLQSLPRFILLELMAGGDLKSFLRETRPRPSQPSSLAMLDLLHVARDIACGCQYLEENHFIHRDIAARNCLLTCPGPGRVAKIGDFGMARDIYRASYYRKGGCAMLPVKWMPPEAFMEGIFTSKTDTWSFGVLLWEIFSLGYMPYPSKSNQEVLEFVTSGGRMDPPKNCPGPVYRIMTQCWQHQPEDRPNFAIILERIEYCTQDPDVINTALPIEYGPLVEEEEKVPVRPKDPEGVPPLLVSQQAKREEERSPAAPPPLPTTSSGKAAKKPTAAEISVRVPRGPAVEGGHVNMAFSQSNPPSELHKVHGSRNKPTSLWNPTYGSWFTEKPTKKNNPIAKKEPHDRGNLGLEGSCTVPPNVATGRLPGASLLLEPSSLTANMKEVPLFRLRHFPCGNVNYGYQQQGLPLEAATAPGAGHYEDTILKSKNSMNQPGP

Sequence of EphA4 (Homo sapiens) (P54764 20-547): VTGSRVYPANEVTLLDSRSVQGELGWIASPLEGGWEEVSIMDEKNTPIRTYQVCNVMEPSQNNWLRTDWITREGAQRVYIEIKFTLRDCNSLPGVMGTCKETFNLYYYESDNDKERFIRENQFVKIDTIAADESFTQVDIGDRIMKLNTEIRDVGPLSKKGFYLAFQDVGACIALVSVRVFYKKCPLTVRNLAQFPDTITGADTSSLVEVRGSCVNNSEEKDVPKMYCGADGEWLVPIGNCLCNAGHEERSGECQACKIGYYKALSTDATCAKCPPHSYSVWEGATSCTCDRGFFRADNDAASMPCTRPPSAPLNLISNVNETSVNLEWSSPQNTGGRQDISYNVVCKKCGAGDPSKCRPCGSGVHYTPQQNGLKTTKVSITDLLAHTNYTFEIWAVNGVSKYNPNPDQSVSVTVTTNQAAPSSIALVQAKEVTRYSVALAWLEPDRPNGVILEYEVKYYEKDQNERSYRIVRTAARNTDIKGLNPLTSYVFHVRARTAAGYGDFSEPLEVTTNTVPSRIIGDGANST
Sequence of ALK (Homo sapiens) (Q9UM73 19-1038): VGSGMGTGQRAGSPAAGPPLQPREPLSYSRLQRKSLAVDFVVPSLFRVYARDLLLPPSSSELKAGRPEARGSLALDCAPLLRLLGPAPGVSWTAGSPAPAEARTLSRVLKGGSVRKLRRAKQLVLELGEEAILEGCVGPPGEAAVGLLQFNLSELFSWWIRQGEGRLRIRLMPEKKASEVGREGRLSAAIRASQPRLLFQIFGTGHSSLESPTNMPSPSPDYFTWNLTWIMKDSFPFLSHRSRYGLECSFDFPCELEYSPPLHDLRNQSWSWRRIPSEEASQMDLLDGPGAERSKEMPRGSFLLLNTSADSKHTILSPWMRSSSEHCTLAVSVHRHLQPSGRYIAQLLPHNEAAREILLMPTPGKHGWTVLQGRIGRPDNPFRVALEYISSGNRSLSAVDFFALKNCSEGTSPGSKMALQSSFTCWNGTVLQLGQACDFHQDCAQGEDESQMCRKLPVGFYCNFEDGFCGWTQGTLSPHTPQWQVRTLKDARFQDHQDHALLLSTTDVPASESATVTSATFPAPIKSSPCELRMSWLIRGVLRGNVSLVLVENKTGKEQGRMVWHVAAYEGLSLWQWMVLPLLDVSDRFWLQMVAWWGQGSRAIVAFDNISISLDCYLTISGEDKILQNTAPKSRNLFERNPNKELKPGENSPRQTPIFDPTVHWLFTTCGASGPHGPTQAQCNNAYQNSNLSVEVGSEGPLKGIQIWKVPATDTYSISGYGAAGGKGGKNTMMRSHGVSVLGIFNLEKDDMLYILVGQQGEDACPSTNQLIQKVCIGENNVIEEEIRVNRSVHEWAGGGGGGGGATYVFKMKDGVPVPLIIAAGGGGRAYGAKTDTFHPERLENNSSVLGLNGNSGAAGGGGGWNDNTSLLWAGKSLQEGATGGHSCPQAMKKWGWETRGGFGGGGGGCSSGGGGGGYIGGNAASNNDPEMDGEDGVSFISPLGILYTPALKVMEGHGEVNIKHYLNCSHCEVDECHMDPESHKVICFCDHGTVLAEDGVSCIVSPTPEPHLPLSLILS

Molecule: ALKAL2 (from UniProt Q6UX46)
- Kd (ALK (Homo sapiens)): 40 nM

Molecule: RNase1 (from UniProt P07998)
- Kd (EphA4 (Homo sapiens)): 92.4 nM

- Kd [1]: 43 nM
B1: recombinantly purified 6x N-terminal His-tagged RNase1 (ligand, human, UniProt P07998 29-156, looked up)
chain: KESRAKKFQRQHMDSDSSPSSSSTYCNQMMRRRNMTQGRCKPVNTFVHEPLVDVQNVCFQEKVTCKNGQGNCYKSNSSMHITDCRLTNGSRYPNCAYRTSPKERHIIVACEGSPYVPVHFDASVEDST
notes: human secretory ribonuclease 1 (RNase1); cDNA cloned into the prokaryotic vector PSJ3 with N-terminal 6His tag; a bacterial construct is likely to lack the signal peptide (surmise); also called R1; human secretory ribonuclease 1; source: E. coli BL21, purified (HisTrap column); not shown: His6, N-terminal, kept
